Results from patent EP4703384A1.

Columns and labels:
[1] = molecular target: human GPRC5D protein (human) (UniProt Q9NZD1); experiment: FACS on RPMI-8226 cells; negative control
[2] = molecular target: human GPRC5D protein (human) (UniProt Q9NZD1); experiment: FACS on MM.1S cells; negative control
[3] = molecular target: human GPRC5D protein (human) (UniProt Q9NZD1); experiment: FACS on NCI-H929 cells; negative control

human GPRC5D protein (human), sequence (Q9NZD1 whole entry): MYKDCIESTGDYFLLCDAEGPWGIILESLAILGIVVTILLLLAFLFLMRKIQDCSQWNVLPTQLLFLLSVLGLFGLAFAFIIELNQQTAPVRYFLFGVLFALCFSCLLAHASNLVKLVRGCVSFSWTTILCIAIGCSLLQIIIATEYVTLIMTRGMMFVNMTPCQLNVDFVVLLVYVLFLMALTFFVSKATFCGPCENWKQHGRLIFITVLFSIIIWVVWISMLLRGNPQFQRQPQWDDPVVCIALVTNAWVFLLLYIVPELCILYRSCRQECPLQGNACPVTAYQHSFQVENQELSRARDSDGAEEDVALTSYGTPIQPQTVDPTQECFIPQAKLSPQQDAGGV

- Top(MFI) [1]: 3860 MFI
- Top(MFI) [2]: 6770 MFI
- Top(MFI) [3]: 4180 MFI
Substance: hIgG1 monoclonal antibody (Biointron, Cat. No. B117901)
